Results as given in US20220112244A1 (DOMPE FARMACEUTICI S P A, published 2022).

Molecular target: IL-17A (agonist in the IL-17RA/IL17RC dimerization assay) (UniProt Q16552 24-155)
Experiment: cell-based or functional assay

IL-17A (agonist in the IL-17RA/IL17RC dimerization assay), sequence (Q16552 24-155 limits assumed): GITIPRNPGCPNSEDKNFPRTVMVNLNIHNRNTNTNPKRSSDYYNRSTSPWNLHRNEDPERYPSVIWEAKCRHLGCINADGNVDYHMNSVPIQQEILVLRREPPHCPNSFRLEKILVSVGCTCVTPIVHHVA

Row | Binder | IC50 in IL-17RA/IL7RC dimerization assay [µM]
1 | Ac-VMVTIPADLYEWIEERQIKIWFQNRRMKWKK-NH2 [peptide of SEQ ID NO: 28] | < 1
2 | Ac-RRRRRRRRVMVTIPADLYEWIEE-NH2 [peptide of SEQ ID NO: 29] | < 1
3 | Ac-VHVYIPAELWEWVRR-NH2 [peptide of SEQ ID NO: 122] | < 0.5
4 | Ac-VMVTIPADLYEWIEEGGTWWTEWSQ-NH2 [peptide of SEQ ID NO: 22] | < 1
5 | Ac-VMVTIPADLYEWIEEARKKAAKA-NH2 [peptide of SEQ ID NO: 21] | < 1
6 | Ac-VMVTIPADLYEWIEEVPGKG-NH2 [peptide of SEQ ID NO: 26] | < 1
7 | Ac-VHVTIPADFWEWVRR-NH2 [peptide of SEQ ID NO: 117] | < 0.5
8 | Ac-VHVTFPADLWEWVRR-NH2 [peptide of SEQ ID NO: 114] | < 0.5
9 | Ac-VPGKGVMVTIPADLYEWIEE-NH2 [peptide of SEQ ID NO: 36] | < 1
10 | Ac-VRIYLPADLWDWINK-NH2 [peptide of SEQ ID NO: 245] | < 10
11 | Ac-IMVTIPADLWDWINK-NH2 [peptide of SEQ ID NO: 3] | < 0.4
12 | Ac-VHVTIPADLWEWFRR-NH2 [peptide of SEQ ID NO: 121] | < 0.5
13 | Ac-VHFTFPQDLWEFVRR-NH2 [peptide of SEQ ID NO: 128] | < 0.5
14 | Ac-VHVTIPADLWEFVRR-NH2 [peptide of SEQ ID NO: 120] | < 0.5
15 | Ac-IHVTIPLEVFEWLQH-NH2 [peptide of SEQ ID NO: 249] | < 10
16 | Ac-VMVTIPADLYEWIEERRRRRRRR-NH2 [peptide of SEQ ID NO: 30] | < 1

Row | Binder | IC50 in IL-17RA/IL7RC dimerization assay [µM]
17 | Ac-VHVTIPADLYEWVRR-NH2 [peptide of SEQ ID NO: 118] | < 0.5
18 | Ac-VRFSVPQEIYEWVRR-NH2 [peptide of SEQ ID NO: 251] | < 10
19 | Ac-VRLYVPADLWDWINK-NH2 [peptide of SEQ ID NO: 244] | < 10
20 | Ac-LRISVPLEIFEWLQH-NH2 [peptide of SEQ ID NO: 252] | < 10
21 | Ac-VHVTIPAELWEWVRR-NH2 [peptide of SEQ ID NO: 111] | < 0.5
22 | Ac-VHVQIPADLWEWVRR-NH2 [peptide of SEQ ID NO: 113] | < 0.5
23 | Ac-VMVTIPADLYEWIEETWWETWW-NH2 [peptide of SEQ ID NO: 23] | < 1
24 | Ac-VHFTFPQDFWEWVRR-NH2 [peptide of SEQ ID NO: 125] | < 0.5
25 | Ac-VMVTIPADLYEWIEEVPGAG-NH2 [peptide of SEQ ID NO: 27] | < 1
26 | Ac-IHVTIPLEIFEWAQH-NH2 [peptide of SEQ ID NO: 247] | < 10
27 | Ac-VHFTFPQDLWNWVRR-NH2 [peptide of SEQ ID NO: 127] | < 0.5
28 | Ac-IHVTIPADLYDWINK-NH2 [peptide of SEQ ID NO: 6] | < 0.4
29 | Ac-VHVTIPADLWNWVRR-NH2 [peptide of SEQ ID NO: 119] | < 0.5
30 | Ac-IHVTIPLEIFEWLQH-NH2 [peptide of SEQ ID NO: 246] | < 10
31 | Ac-VPGWGVMVTIPADLYEWIEE-NH2 [peptide of SEQ ID NO: 34] | < 1
32 | Ac-VMVTIPADLYEWIEEVPGWG-NH2 [peptide of SEQ ID NO: 24] | < 1

The remaining lines, values ahead:

Row | IC50 in IL-17RA/IL7RC dimerization assay [µM] | Binder
33 | < 1 | Ac-ARKKAAKAVMVTIPADLYEWIEE-NH2 [peptide of SEQ ID NO: 31]
34 | < 0.5 | Ac-VHFQFPADLWNWVRR-NH2 [peptide of SEQ ID NO: 133]
35 | < 10 | Ac-VEFNFPQQVYEWFDD-NH2 [peptide of SEQ ID NO: 255]
36 | < 0.5 | Ac-VHVTIPQDLWEWVRR-NH2 [peptide of SEQ ID NO: 115]
37 | < 1 | Ac-VPGAGVMVTIPADLYEWIEE-NH2 [peptide of SEQ ID NO: 35]
38 | < 10 | Ac-IHVTIPGEIFEWLQH-NH2 [peptide of SEQ ID NO: 250]
39 | < 1 | Ac-GGKETWWETWVMVTIPADLYEWIEE-NH2 [peptide of SEQ ID NO: 33]
40 | < 0.4 | Ac-VMVTIPADLYEWIEE-NH2 [peptide of SEQ ID NO: 18]
41 | < 0.5 | Ac-VHFTIPQDLYEWVRR-NH2 [peptide of SEQ ID NO: 126]
42 | < 1 | Ac-VMVTIPADLYEWIEERRR-NH2 [peptide of SEQ ID NO: 20]
43 | < 0.5 | Ac-VHFTFPQDLWEWFRR-NH2 [peptide of SEQ ID NO: 129]
44 | < 10 | Ac-VEFNFPQQVYEWVRR-NH2 [peptide of SEQ ID NO: 256]
45 | < 0.5 | Ac-VHFTFPQDLWEWVRR-NH2 [peptide of SEQ ID NO: 124]
46 | < 0.5 | Ac-VHVTIPANLWEWVRR-NH2 [peptide of SEQ ID NO: 116]
47 | < 0.5 | Ac-VHVTIPAEWWEWVRR-NH2 [peptide of SEQ ID NO: 123]
48 | < 1 | Ac-VMVTIPADLYEWIEERRRRRR-NH2 [peptide of SEQ ID NO: 19]
49 | < 10 | Ac-IHVTIPLEIFEWLQR-NH2 [peptide of SEQ ID NO: 248]
50 | < 10 | Ac-VKISVPLEIFEWLQH-NH2 [peptide of SEQ ID NO: 254]
51 | < 0.1 | Ac-IHVTIPAELWDWINK-NH2 [peptide of SEQ ID NO: 5]
52 | < 1 | Ac-GGTWWTEWSQVMVTIPADLYEWIEE-NH2 [peptide of SEQ ID NO: 32]
53 | < 1 | Ac-VMVTIPADLYEWIEEGGKETWWETW-NH2 [peptide of SEQ ID NO: 25]
54 | < 0.5 | Ac-VHFQFPADLWEWVRR-NH2 [peptide of SEQ ID NO: 130]
55 | < 10 | Ac-TWYVFNEQHQEYVRK-NH2 [peptide of SEQ ID NO: 257]
56 | < 0.5 | Ac-VHFTIPADLWEWVRR-NH2 [peptide of SEQ ID NO: 112]
57 | < 10 | Ac-LRGSVPLEIFEWLQH-NH2 [peptide of SEQ ID NO: 253]
